Results as given in patent US20260176659A1, “IMPROVED METHOD FOR THE PRODUCTION OF NATURAL VANILLIN” (BASE SE, priority 2022, published 2026).
Several values for one entry are separate records, joined by “and”; a condition that tells them apart may be missing. Identical values can stand only once.

How the values were obtained:
Assay type in all cases: biochemical
[1] = Conversion of 50 mM coniferyl alcohol to vanillin by CO-25; details: for Intermediate and product distribution at 24 hours 2a [%] / Intermediate and product distribution at 24 hours 3a [%] / Intermediate and product distribution at 24 hours 5a [%] / 2a / 3a / 5a / Conv. [%]: CO-25 3 mg CFE, catalase 4 mg, 0.4 mL, 50 mM coniferyl alcohol 2a; for 2a / 3a / 5a / Conv. [%]: 24 hours
Method: In each well of a deep-well-plate sealed with a gas permeable tape we mixed CO-25 (3 mg CFE) and catalase (4 mg) with coniferyl alcohol 2a (3.6 mg, 0.02 mL from 1M stock, final conc.: 50 mM) to a final volume of 0.4 mL. After one day incubation shaking at 290 rpm we obtained 40-46% conversion of coniferyl alcohol 2a to vanillin 3a (Table 10).

[2] = Bioconversion of eugenol to vanillin: one-pot concurrent cascade EUGO + alkene cleavage oxygenase (5 mM scale); details: 5 mM eugenol; for Intermediate and product distribution at 24 hours 2a [%] / Intermediate and product distribution at 24 hours 3a [%] / Intermediate and product distribution at 24 hours 5a [%] / 2a / 3a / 5a / Conv. [%] ((3a mM)/5*100): EUGO 0.5 mg CFE, CO-25 3 mg CFE, catalase 5 mg; for 2a / 3a / 5a / Conv. [%] ((3a mM)/5*100): 24 hours
Method in brief: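 Cell-free extracts of EUGO (0.5 mg) and cleavage oxygenase (3 mg) were combined with catalase, 1 mM FeSO4 and 1 mM ascorbate in glycine-NaOH pH 9.0 (or Tris-HCl pH 8.0). The cascade ran with 5 mM eugenol (5% ethanol/DMSO cosolvent) at 30° C and 120 rpm overnight. Methanol-quenched samples were analysed by HPLC at 280/340 nm.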

[3] = Subsequent screening of alkene cleavage oxygenases: activity with coniferyl alcohol
Method: Therefore, 50 mL TB-Kan medium in a 250 mL shake flask were inoculated with an overnight preculture of E. coi BL21 (DE3) carrying a pET-28a plasmid encoding CO-25 in the expression cassette. At OD600 ˜0.8-1, the expression was induced with 0.1 mM IPTG and the culture incubated at 25° C. for 20 hours. 0.5 mM FeSO4*7H2O was added together with the inducer. Then, the cells were disrupted by sonication in Glycine-NaOH 50 mM pH 9.0 containing 1 mM FeSO4*7H2O and 1 mM sodium ascorbate. After centrifugation, the cell free extract was lyophilized and stored at −20° C. From 50 mL cell culture we obtained 235 mg of freeze-dried cell free extract.

B1: CO-25: cleavage oxygenase from Novosphingobium aromaticivorans (Uniprot: Q2GA76), SEQ ID NO: 134 (protein)
chain: MAQFPNTPSFTGFNTPSRIEADIADLAHEGTIPQGLNGAFYRVQPDPQFPPRLDDDIAFNGDGMITRFHIHDGQVDFRQRWAKTDKWKLENAAGKALFGAYRNPLTDDEAVKGEIRSTANTNAFVFGGKLWAMKEDSPALVMDPATMETFGFEKFGGKMTGQTFTAHPKVDPKTGNMVAIGYAASGLCTDDVTYMEVSPEGELVREVWFKVPYYCMMHDFGITEDYLVLHIVPSIGSWERLEQGKPHFGFDTTMPVHLGIIPRRDGVRQEDIRWFTRDNCFASHVLNAWQEGTKIHFVTCEAKNNMFPFFPDVHGAPFNGMEAMSHPTDWVVDMASNGEDFAGIVKLSDTAAEFPRIDDRFTGQKTRHGWFLEMDMKRPVELRGGSAGGLLMNCLFHKDFETGREQHWWCGPVSSLQEPCFVPRAKDAPEGDGWIVQVCNRLEEQRSDLLIFDALDIEKGPVATVNIPIRLRFGLHGNWANADEIGLAEKVLAA
modifications: Novosphingobium aromaticivorans
In the case of B1, the “Intermediate and product distribution at 24 hours 2a [%]” value ([1]; pH 8) is reported as 47.7%, the “Intermediate and product distribution at 24 hours 3a [%]” value ([1]; pH 8) is reported as 51.1% and the “Intermediate and product distribution at 24 hours 5a [%]” value ([1]; pH 8) is reported as 1.1%. For the same molecule, the “2a” value ([1]; pH 8) was 21.48 mM, the “3a” value ([1]; pH 8) was 23.01 mM and the “5a” value ([1]; pH 8) was 0.52 mM. The “Conv. [%]” value ([1]; pH 8) was 46.0%, the “Intermediate and product distribution at 24 hours 2a [%]” value ([1]; pH 9) was 52.5% and the “Intermediate and product distribution at 24 hours 3a [%]” value ([1]; pH 9) was 45.7%. For the same molecule, the “Intermediate and product distribution at 24 hours 5a [%]” value ([1]; pH 9) was 1.9%, the “2a” value ([1]; pH 9) was 22.87 mM and the “3a” value ([1]; pH 9) was 19.92 mM. The “5a” value ([1]; pH 9) was 0.81 mM, the “Conv. [%]” value ([1]; pH 9) was 39.8% and the “conversion of coniferyl alcohol 2a to vanillin 3a” value ([1]; CO-25, 50 mM 2a, one day incubation) was 40-46%. The “Intermediate and product distribution at 24 hours 2a [%]” value ([2]; pH 8) was 16.4% and 17.1%, the “Intermediate and product distribution at 24 hours 3a [%]” value ([2]; pH 8) was 83.1% and 82.4% and the “Intermediate and product distribution at 24 hours 5a [%]” value ([2]; pH 8) was 0.5%. The “2a” value ([2]; pH 8) was 4.18 mM and 4.39 mM, the “3a” value ([2]; pH 8) was 4.18 mM and 4.39 mM and the “5a” value ([2]; pH 8) was 0.03 mM. The “Conv. [%] ((3a mM)/5*100)” value ([2]; pH 8) was 83.5% and 87.7%, the “Intermediate and product distribution at 24 hours 2a [%]” value ([2]; pH 9) was 12.8% and 11.6% and the “Intermediate and product distribution at 24 hours 3a [%]” value ([2]; pH 9) was 86.3% and 87.5%. For the same molecule, the “Intermediate and product distribution at 24 hours 5a [%]” value ([2]; pH 9) was 0.9%, the “2a” value ([2]; pH 9) was 4.31 mM and 4.21 mM and the “3a” value ([2]; pH 9) was 4.31 mM and 4.21 mM. The “5a” value ([2]; pH 9) was 0.05 mM and 0.04 mM, the “Conv. [%] ((3a mM)/5*100)” value ([2]; pH 9) was 86.2% and 84.2% and the “conversion to vanillin 3a” value ([2]; EUGO and CO-25, 0.5 mL scale, pH 8 and 9) was 83-88%. The “activity with coniferyl alcohol in comparison to NOV1 mutant S283F” value [3] was “significant higher activity”.
